Laboratory results as given in the supplement of paper PMC10724198.
± gives the standard deviation of the averaged measurements.

What was measured:
Saccharomyces cerevisiae [1] = test: protein stability index of tFT-peptide fusion (C-terminal peptide) (PSI (0-1 scale)); higher = more stable (slower turnover); conditions: genetic background: wild type; temperature: 30 C
Saccharomyces cerevisiae [2] = test: as above
Description: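 MPS profiling in S. cerevisiae of the tFT-X12 degron library: putative degron peptides plus stable controls, 12 aa, fused to the C-terminus of a sfGFP-mCherry timer. Cells are FACS-sorted into 8 mCherry/sfGFP bins and deep-sequenced. PSI runs from 0 (unstable) to 1 (stable). Backgrounds are wild type, das1Δ and doa10Δ at 30 °C, and wild type, das1Δ, cdc34-1 and cdc53-1 at 37 °C; 2-3 technical replicates each.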

[3] = genetic background: cdc34-1, temperature: 37 C
[4] = genetic background: cdc53-1, temperature: 37 C
[5] = genetic background: das1 deletion, temperature: 30 C
[6] = genetic background: das1 deletion, temperature: 37 C
[7] = genetic background: doa10 deletion, temperature: 30 C
[8] = genetic background: wild type, temperature: 30 C
[9] = genetic background: wild type, temperature: 37 C
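Further: PSI is a weighted mean of sequencing reads over stability bins, variants kept only with over 10 reads, mCherry proximal and sfGFP distal, peptide attached via GGGS linker.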

Sequence | protein stability index (Saccharomyces cerevisiae [1]) | protein stability index (Saccharomyces cerevisiae [2]; [3]) | protein stability index (Saccharomyces cerevisiae [2]; [4]) | protein stability index (Saccharomyces cerevisiae [2]; [5]) | protein stability index (Saccharomyces cerevisiae [2]; [6]) | protein stability index (Saccharomyces cerevisiae [2]; [7]) | protein stability index (Saccharomyces cerevisiae [2]; [8]) | protein stability index (Saccharomyces cerevisiae [2]; [9])
HSRRRRPTPQSL | 0.571 ± 0.12 | 0.609 ± 0.047 | 0.65 ± 0.016 | 0.651 ± 0.036 | 0.636 ± 0.011 | 0.662 ± 0.014 | 0.64 ± 0.019 | 0.61 ± 0.016
LCLRCQCIGTLS | 0.489 ± 0.0097 | 0.54 ± 0.017 | 0.587 ± 0.014 | 0.45 ± 0.023 | 0.557 ± 0.012 | 0.413 ± 0.016 | 0.435 ± 0.013 | 0.54 ± 0.0091
RRQLVLVLSWVI | 0.377 ± 0.025 | 0.466 ± 0.017 | 0.508 ± 0.018 | 0.346 ± 0.027 | 0.507 ± 0.019 | 0.299 ± 0.013 | 0.322 ± 0.017 | 0.506 ± 0.067
FLACYSSFLFVS | 0.149 ± 0.03 | 0.417 ± 0.034 | 0.576 ± 0.011 | 0.4917 ± 0.0018 | 0.587 ± 0.0092 | 0.0703 ± 0.024 | 0.0895 ± 0.022 | 0.136 ± 0.0035
LRVGVRSWGGKW | 0.433 ± 0.0069 | 0.4323 ± 0.0013 | 0.5125 ± 0.0013 | 0.4299 ± 0.0014 | 0.4369 ± 0.002 | 0.439 ± 0.013 | 0.4346 ± 0.0031 | 0.439 ± 0.014
SRRSIGAYLFVS | 0.339 ± 0.026 | 0.693 ± 0.053 | 0.761 ± 0.029 | 0.635 ± 0.039 | 0.768 ± 0.031 | 0.178 ± 0.013 | 0.208 ± 0.018 | 0.411 ± 0.025
PSFLAIRVCLLV | 0.133 ± 0.021 | 0.0466 ± 0.00074 | 0.0881 ± 0.02 | 0.147 ± 0.034 | 0.211 ± 0.0098 | 0.0853 ± 0.02 | 0.0766 ± 0.01 | 0.0987 ± 0.036
GEVLWAVLLVSC | 0.299 ± 0.0047 | 0.1782 ± 0.00065 | 0.208 ± 0.016 | 0.215 ± 0.029 | 0.343 ± 0.0077 | 0.164 ± 0.023 | 0.198 ± 0.038 | 0.3 ± 0.0077
WQVPYQRLAILF | 0.309 ± 0.017 | 0.603 ± 0.021 | 0.656 ± 0.017 | 0.555 ± 0.03 | 0.681 ± 0.016 | 0.215 ± 0.017 | 0.247 ± 0.02 | 0.346 ± 0.011
VVFVGRSIVVLT | 0.419 ± 0.047 | 0.508 ± 0.019 | 0.525 ± 0.014 | 0.358 ± 0.038 | 0.567 ± 0.019 | 0.336 ± 0.037 | 0.371 ± 0.03 | 0.519 ± 0.019
LLQCRTGLASGR | 0.518 ± 0.13 | 0.685 ± 0.032 | 0.732 ± 0.043 | 0.649 ± 0.013 | 0.748 ± 0.0087 | 0.652 ± 0.029 | 0.656 ± 0.043 | 0.718 ± 0.043
HPPPTLVPPHPR | 0.616 ± 0.19 | 0.64 ± 0.032 | 0.709 ± 0.031 | 0.674 ± 0.011 | 0.727 ± 0.0074 | 0.7045 ± 0.0028 | 0.681 ± 0.019 | 0.6803 ± 0.0027
PAMPTEPKSSSG | 0.7016 ± 0.0016 | 0.667 ± 0.019 | 0.7403 ± 0.0028 | 0.629 ± 0.015 | 0.716 ± 0.034 | 0.644 ± 0.015 | 0.667 ± 0.033 | 0.717 ± 0.0095
VCALHSAPLLIF | 0.462 ± 0.023 | 0.453 ± 0.029 | 0.484 ± 0.017 | 0.352 ± 0.034 | 0.496 ± 0.0065 | 0.307 ± 0.005 | 0.362 ± 0.012 | 0.467 ± 0.00048
YVSSCLLWLCFV | 0.376 ± 0.034 | 0.484 ± 0.043 | 0.551 ± 0.018 | 0.421 ± 0.023 | 0.5591 ± 0.0006 | 0.28 ± 0.0085 | 0.287 ± 0.023 | 0.457 ± 0.011
EWVWVVFSCVSW | 0.3472 ± 0.0015 | 0.303 ± 0.027 | 0.429 ± 0.0099 | 0.307 ± 0.029 | 0.435 ± 0.012 | 0.2932 ± 0.0027 | 0.32 ± 0.012 | 0.432 ± 0.024
VRNYWKYVVIFP | 0.569 ± 0.15 | 0.624 ± 0.0047 | 0.711 ± 0.023 | 0.617 ± 0.0079 | 0.7338 ± 0.0065 | 0.578 ± 0.011 | 0.569 ± 0.023 | 0.674 ± 0.068
LSRSAGVGVWVG | 0.391 ± 0.073 | 0.65 ± 0.01 | 0.72 ± 0.019 | 0.647 ± 0.0099 | 0.731 ± 0.013 | 0.243 ± 0.018 | 0.283 ± 0.022 | 0.553 ± 0.026
VVLVVVWWGGVE | 0.3931 ± 0.00072 | 0.242 ± 0.051 | 0.421 ± 0.074 | 0.249 ± 0.034 | 0.4872 ± 0.0025 | 0.21 ± 0.003 | 0.258 ± 0.029 | 0.403 ± 0.036
